Experimental data taken from ChEMBL document CHEMBL1150442, “Synthesis and creatine kinase inhibitory activity of non-hydrolyzable analogs of phosphocreatine” (Bioorg Med Chem Lett, 1997).

Tested on: CN(CC(=O)O)C(=N)NP(=O)(O)O
Assay: Compound was tested for inhibition against Creatine kinase(CK)
Details: Oryctolagus cuniculus

Creatine kinase M-type (Homo sapiens), P06732, sequence (P06732 whole entry): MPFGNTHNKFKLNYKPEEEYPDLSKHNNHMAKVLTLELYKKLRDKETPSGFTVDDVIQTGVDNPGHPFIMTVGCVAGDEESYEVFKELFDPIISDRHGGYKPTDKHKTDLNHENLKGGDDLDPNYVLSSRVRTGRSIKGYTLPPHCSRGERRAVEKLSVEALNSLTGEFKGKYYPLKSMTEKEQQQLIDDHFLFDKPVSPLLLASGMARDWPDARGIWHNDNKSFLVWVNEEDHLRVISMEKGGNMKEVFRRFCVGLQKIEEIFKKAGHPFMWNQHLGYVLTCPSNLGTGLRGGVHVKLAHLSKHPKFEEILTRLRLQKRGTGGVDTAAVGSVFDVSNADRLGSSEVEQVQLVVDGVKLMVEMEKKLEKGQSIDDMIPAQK

Q: For “Creatine kinase M-type (Homo sapiens), P06732”, which Km is on record?
A: 2500 µM
